This note sets out measurements from patent publication US20190211359A1 (INSTITUTE FOR CANCER RESEARCH D B A THE RESEARCH INSTITUTE …, published 2019).

For test [1], the target named is T1, receptor-interacting serine/threonine-protein kinase 3 (RIPK3), murine (mouse, UniProt Q9QZL0 1-486).
T1 construct: Endogenous protein of MEFs, pulled down with anti-RIPK3 antibody; also called RIP3
As to the kind of experiment: RIPK3 immunoprecipitated from PR8-infected wild-type MEFs, immunoblot for DAI (FIG. 13A); also seen with re-expressed wild type DAI (FIG. 13D). As for the experimental part:
FIGS. 13A through 13F show DAI is required for IAV induced formation of RIPK3-containing necrosome complex. […] In parallel, wild-type (WT), zbp1^{-/-}, and ripk3^{-/-} MEFs were treated with […] and phosphorylated MLKL. […] In parallel, reconstituted cells were treated with TCZ and examined for expression of phosphorylated p MLKL. […] Whole-cell extract (5% input) was examined in parallel for RIPK3, DAI and IAV NS1 proteins.
(A western blot detects proteins with antibodies after separation by electrophoresis.)

For test [2], the target named is T1, receptor-interacting …. As to the kind of experiment: anti-RIPK3 immunoprecipitation from PR8-infected reconstituted zbp1-/- MEFs, immunoblot (FIG. 13D).

Where a chain is given by its changes, count along the chain named.

T1 sequence (Q9QZL0 whole entry): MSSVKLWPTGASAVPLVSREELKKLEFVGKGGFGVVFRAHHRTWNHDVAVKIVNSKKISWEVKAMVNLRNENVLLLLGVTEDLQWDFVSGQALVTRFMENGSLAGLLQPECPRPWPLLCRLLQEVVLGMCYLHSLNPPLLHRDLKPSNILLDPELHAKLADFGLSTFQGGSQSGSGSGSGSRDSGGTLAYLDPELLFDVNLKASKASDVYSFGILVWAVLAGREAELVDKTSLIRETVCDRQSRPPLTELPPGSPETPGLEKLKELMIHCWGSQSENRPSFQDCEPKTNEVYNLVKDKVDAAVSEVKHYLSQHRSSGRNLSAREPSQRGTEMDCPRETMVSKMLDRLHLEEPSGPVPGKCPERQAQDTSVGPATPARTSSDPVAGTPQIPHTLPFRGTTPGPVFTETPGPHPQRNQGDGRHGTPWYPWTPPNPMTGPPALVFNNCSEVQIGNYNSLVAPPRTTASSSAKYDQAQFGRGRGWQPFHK

B1: DNA-dependent activator of interferon-regulatory factors (DAI), wild-type full-length murine (other, mouse, UniProt Q9QY24 1-411, looked up)
chain: MAEAPVDLSTGDNLEQKILQVLSDDGGPVKIGQLVKKCQVPKKTLNQVLYRLKKEDRVSSPEPATWSIGGAASGDGAPAIPENSSAQPSLDERILRFLEANGPHRALHIAKALGMTTAKEVNPLLYSMRNKHLLSYDGQTWKIYHSRQEGQDIAHSGVTQESPAIICQHNPVNMICQQGANSHISIANSNAIQIGHGNVIVREKACGEPGPRTSHPLPLAWDASAQDMPPVAHGAQYIYMDKSLLQQVQLGHHNEMSLVGDAGKHPSYSFSDSPPEVSTTTADPGASFNMQTFEPGPHPEGDTVQTVHIKSCFLEDATIGNGNKMTIHLRSKGEVMESGDSEEPKKEDTGTSSEATPPRSCQHTPSDSMLPTSELRAMALGDSSPQTTEPVLREHEVQDIESSQDTGLSKQ
notes: also called ZBP1; DLM-1
Take B1: the binding result in test [1] is reported as “binds”.

B2: murine DAI with mutant RHIM domain (amino acids 192-195 IQIG to AAAA) (other, mouse, UniProt Q9QY24 1-411, looked up)
chain: B1 chain with I192A, Q193A, I194A, G195A
notes: also called DAI mutRHIM
For the molecule B2, the binding result in test [2] was “no binding”.
